Experimental findings from paper PMC4863989 are described below.

A value given as a limit tells only on which side of the number the result lay.

The target of assay [1] is expanded form (EX) of the P22 virus-like particle (bacteriophage P22) (UniProt P26747). Put plainly: SEC-MALS. Background: Size exclusion chromatography separates by hydrodynamic size, large species first.
The target is the same in assay [2]. Put plainly: SPR. For orientation: SPR reads the build-up and loss of mass on a sensor chip optically.
Assay [3] concerns the target Dec truncated by the first 11 N-terminal residues (bacteriophage L). Description: SEC.
Assay [4] addresses Dec truncated by the first 20 N-terminal residues (bacteriophage L). Description: SEC.
In assay [5] the target is decoration protein (Dec) from bacteriophage L, wild type with N-terminal 6x histidine tag (bacteriophage L). Put plainly: SEC.

“Dec fused at its C-terminus to the 21 amino acid CD47 mimic Self-peptide” came in with a stoichiometry N (Dec monomers per particle) in assay [1] of 114. In assay [2], this substance showed a KD1 (tight site, two-site fit) of 18.3 nM and a ka1 (tight site, two-site fit) of 11200 M⁻¹ s⁻¹.

Consider “Dec fused at its C-terminus to the soluble region of murine CD40L (from UniProt P27548 112-260)”, for which, in assay [1], the stoichiometry N (Dec monomers per particle) is 51. Besides, in assay [2], the KD1 (tight site, two-site fit) worked out at 30.8 nM; the ka1 (tight site, two-site fit) amounted to 6440 M⁻¹ s⁻¹; the kd1 (tight site, two-site fit) worked out at 0.0002 s⁻¹.

A word on the stoichiometry N: it is a count of units in the complex or per binding partner. As for “Dec truncated by the first 11 N-terminal residues (domain or fragment)”, the stoichiometry N (Dec monomers per particle) in assay [1] was determined as 214. The same substance registered a stoichiometry N in assay [3] of 3.

On to “Dec truncated by the first 20 N-terminal residues (domain or fragment)”, for which the stoichiometry N in assay [4] was determined as 3.

Broadly, the Kd is a measure of binding affinity in units of concentration. Read a low Kd as higher affinity. The term koff denotes the first-order rate constant of dissociation. Low readings indicate a long-lived complex, high ones a short-lived complex. What is called kon is the second-order rate constant of association. A lower kon goes with slow association. “decoration protein (Dec) from bacteriophage L, wild type with N-terminal 6x histidine tag (natural protein)”: in assay [1], the stoichiometry N (Dec monomers per particle) came out at 155. Besides, in assay [2], the KD2 (weak site, two-site fit) is 1500 nM; the Kd came to 24 nM; the half-life of binding at the tight site was > 60 h; the ka1 (tight site, two-site fit) worked out at 11500 M⁻¹ s⁻¹. In assay [2], the ka2 (weak site, two-site fit) is 1980 M⁻¹ s⁻¹; the kd1 (tight site, two-site fit) turned out to be 0.000106 s⁻¹; the koff is 0.00033 s⁻¹; the kon came out at 13800 M⁻¹ s⁻¹. The substance also returned a stoichiometry N in assay [5] of 3.
